Assay results reported in publication PMC2947466.
Positions count from the first letter of the chain named. Numbers in names are those of the source.

B1: spartin MIT domain (residues 1-107), purified (domain or fragment)
chain: MEQEPQNGEPAEIKIIREAYKKAFLFVNKGLNTDELGQKEEAKNYYKQGIGHLLRGISISSKESEHTGPGWESARQMQQKMKETLQNVRTRLEILEKGLATSLQNDL
B2: spastin MIT domain, purified (domain or fragment)
chain: HKQAFEYISIALRIDEDEKAGQKEQAVEWYKKGIEELEKGIAVIVTGQGEQCERARRLQAKMMTNLVMAKDRLQLL
B3: spastin F124D MIT domain, purified (domain or fragment)
chain: B2 chain with F5D

Target: GST-Ist1-CTR (residues 296-335) (human)
Test: SPR

Binder	Kd [µM]
B1	10.4
B2	4.6
B3	471
